Assay results from the supplement of paper PMC10567573.

B1: SFRS1 (parent)
chain: YSPRRSRGSPRYSPRHSRSRSRT
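Also: lentivirally expressed fusions sorted by FACS into six bins by GFP to DsRed ratio, PSI derived from sequencing read proportions per bin multiplied by bin number.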

Variants of: B1
Experiment: protein stability index of a GFP-peptide fusion (GPS, HEK-293T) (PSI 1-6); higher = more stable
Conditions: c terminus: native
In the case of YSPRRSRGSNRYSPRHSRSRSRT [P10N], the protein stability index is reported as 4.31.
In the case of YSPRRSRGSIRYSPRHSRSRSRT [P10I], the protein stability index is reported as 3.41.
With YSPRRSRGSRRYSPRHSRSRSRT [P10R] the protein stability index was 4.2.
YSPRRSRGSMRYSPRHSRSRSRT [P10M] showed a protein stability index of 3.73.
Work on YSPRRSRGSKRYSPRHSRSRSRT [P10K] yielded a protein stability index of 4.4.
Work on YSPRRSRGSCRYSPRHSRSRSRT [P10C] yielded a protein stability index of 3.45.
In the case of YSPRRSRGSFRYSPRHSRSRSRT [P10F], the protein stability index is reported as 3.07.
For YSPRRSRGSDRYSPRHSRSRSRT [P10D], the protein stability index was 4.25.
With YSPRRSRGSTRYSPRHSRSRSRT [P10T] the protein stability index was 4.51.
For YSPRRSRGSWRYSPRHSRSRSRT [P10W], the protein stability index was 3.4.
Variant YSPRRSRGSYRYSPRHSRSRSRT [P10Y] has a protein stability index of 3.67.
Work on YSPRRSRGSERYSPRHSRSRSRT [P10E] yielded a protein stability index of 3.6.
Variant YSPRRSRGSARYSPRHSRSRSRT [P10A] has a protein stability index of 4.
With YSPRRSRGSGRYSPRHSRSRSRT [P10G] the protein stability index was 3.37.
With YSPRRSRGSSRYSPRHSRSRSRT [P10S] the protein stability index was 4.35.
For YSPRRSRGSQRYSPRHSRSRSRT [P10Q], the protein stability index was 3.
YSPRRSRGSPRYSPRHSYSRSRT [R18Y] showed a protein stability index of 3.07.
Work on YSPRRSRGSPRYSPRHSISRSRT [R18I] yielded a protein stability index of 3.43.
Variant YSPRRSRGSPRYSPRHSGSRSRT [R18G] has a protein stability index of 3.27.
Variant YSPRRSRGSPRYSPRHSMSRSRT [R18M] has a protein stability index of 2.87.
With YSPRRSRGSPRYSPRHSSSRSRT [R18S] the protein stability index was 2.9.
YSPRRSRGSPRYSPRHSLSRSRT [R18L] showed a protein stability index of 3.44.
In the case of YSPRRSRGSPRYSPRHSESRSRT [R18E], the protein stability index is reported as 2.44.
In the case of YSPRRSRGSPRYSPRHSTSRSRT [R18T], the protein stability index is reported as 3.46.
YSPRRSRGSPRYSPRHSNSRSRT [R18N] showed a protein stability index of 3.5.
Work on YSPRRSRGSPRYSPRHSPSRSRT [R18P] yielded a protein stability index of 2.52.
For YSPRRSRGSPRYSPRHSCSRSRT [R18C], the protein stability index was 2.61.
In the case of YSPRRSRGSPRYSPRHSWSRSRT [R18W], the protein stability index is reported as 2.93.
With YSPRRSRGSPRYSPRHSASRSRT [R18A] the protein stability index was 3.64.
Variant YSPRRSRGSPRYSPRHSQSRSRT [R18Q] has a protein stability index of 3.27.
YSPRRSRGSPRYSPRHSHSRSRT [R18H] gave a protein stability index of 3.28.
Work on YSPRRSRGSPRYSPRHSVSRSRT [R18V] yielded a protein stability index of 3.68.
Variant YSPRRSRGSPRYSPRHSDSRSRT [R18D] has a protein stability index of 2.77.
Work on YSPRRSRGSPRYSPRHSKSRSRT [R18K] yielded a protein stability index of 2.94.
YSPRRSRGSPRYSPRHSFSRSRT [R18F] showed a protein stability index of 2.42.
Work on YSPRRSRGSPRYSPRHDRSRSRT [S17D] yielded a protein stability index of 3.75.
Work on YSPRRSRGSPRYSPRHGRSRSRT [S17G] yielded a protein stability index of 3.53.
For YSPRRSRGSPRYSPRHIRSRSRT [S17I], the protein stability index was 4.04.
YSPRRSRGSPRYSPRHNRSRSRT [S17N] showed a protein stability index of 3.81.
For YSPRRSRGSPRYSPRHPRSRSRT [S17P], the protein stability index was 4.19.
Work on YSPRRSRGSPRYSPRHFRSRSRT [S17F] yielded a protein stability index of 4.13.
For YSPRRSRGSPRYSPRHWRSRSRT [S17W], the protein stability index was 3.69.
With YSPRRSRGSPRYSPRHTRSRSRT [S17T] the protein stability index was 4.05.
YSPRRSRGSPRYSPRHHRSRSRT [S17H] showed a protein stability index of 3.77.
In the case of YSPRRSRGSPRYSPRHVRSRSRT [S17V], the protein stability index is reported as 3.73.
YSPRRSRGSPRYSPRHERSRSRT [S17E] gave a protein stability index of 3.9.
With YSPRRSRGSPRYSPRHYRSRSRT [S17Y] the protein stability index was 3.6.
YSPRRSRGSPRYSPRHCRSRSRT [S17C] showed a protein stability index of 4.
In the case of YSPRRSRGSPRYSPRHRRSRSRT [S17R], the protein stability index is reported as 4.49.
Work on YSPRRSRGSPRYSPRHQRSRSRT [S17Q] yielded a protein stability index of 4.
Work on YSPRRSRGSPRYSPRHKRSRSRT [S17K] yielded a protein stability index of 4.35.
For YSPRRSRGSPRYSPRHLRSRSRT [S17L], the protein stability index was 3.69.
In the case of YSPRRSRGSPRYSPRHMRSRSRT [S17M], the protein stability index is reported as 4.06.
YSPRRSRGSPRYSPRHARSRSRT [S17A] showed a protein stability index of 4.15.
Work on YSPRRSRGSPRYSPRLSRSRSRT [H16L] yielded a protein stability index of 4.35.
Variant YSPRRSRGSPRYSPRYSRSRSRT [H16Y] has a protein stability index of 4.45.
YSPRRSRGSPRYSPRRSRSRSRT [H16R] showed a protein stability index of 4.5.
Variant YSPRRSRGSPRYSPRKSRSRSRT [H16K] has a protein stability index of 4.35.
Work on YSPRRSRGSPRYSPRGSRSRSRT [H16G] yielded a protein stability index of 4.31.
YSPRRSRGSPRYSPRNSRSRSRT [H16N] gave a protein stability index of 4.1.
In the case of YSPRRSRGSPRYSPRFSRSRSRT [H16F], the protein stability index is reported as 3.83.
YSPRRSRGSPRYSPRISRSRSRT [H16I] showed a protein stability index of 3.95.
Work on YSPRRSRGSPRYSPRESRSRSRT [H16E] yielded a protein stability index of 3.47.
With YSPRRSRGSPRYSPRVSRSRSRT [H16V] the protein stability index was 3.93.
In the case of YSPRRSRGSPRYSPRPSRSRSRT [H16P], the protein stability index is reported as 4.35.
YSPRRSRGSPRYSPRASRSRSRT [H16A] showed a protein stability index of 4.81.
For YSPRRSRGSPRYSPRMSRSRSRT [H16M], the protein stability index was 3.95.
YSPRRSRGSPRYSPRDSRSRSRT [H16D] showed a protein stability index of 4.05.
YSPRRSRGSPRYSPRTSRSRSRT [H16T] showed a protein stability index of 4.27.
With YSPRRSRGSPRYSPRWSRSRSRT [H16W] the protein stability index was 3.14.
Work on YSPRRSRGSPRYSPRSSRSRSRT [H16S] yielded a protein stability index of 4.5.
In the case of YSPRRSRGSPRYSPRQSRSRSRT [H16Q], the protein stability index is reported as 4.02.
YSPRRSRGSPRYSPRCSRSRSRT [H16C] showed a protein stability index of 3.96.
For YSPRRSRGSPRYSPRHSRARSRT [S19A], the protein stability index was 2.98.
Work on YSPRRSRGSPRYSPRHSRTRSRT [S19T] yielded a protein stability index of 3.68.
With YSPRRSRGSPRYSPRHSRVRSRT [S19V] the protein stability index was 3.73.
For YSPRRSRGSPRYSPRHSRPRSRT [S19P], the protein stability index was 4.39.
Work on YSPRRSRGSPRYSPRHSRHRSRT [S19H] yielded a protein stability index of 3.89.
With YSPRRSRGSPRYSPRHSRDRSRT [S19D] the protein stability index was 3.75.
Work on YSPRRSRGSPRYSPRHSRKRSRT [S19K] yielded a protein stability index of 3.88.
Work on YSPRRSRGSPRYSPRHSRRRSRT [S19R] yielded a protein stability index of 3.55.
YSPRRSRGSPRYSPRHSRMRSRT [S19M] gave a protein stability index of 2.9.
Variant YSPRRSRGSPRYSPRHSRERSRT [S19E] has a protein stability index of 3.14.
In the case of YSPRRSRGSPRYSPRHSRWRSRT [S19W], the protein stability index is reported as 3.76.
Variant YSPRRSRGSPRYSPRHSRCRSRT [S19C] has a protein stability index of 3.71.
For YSPRRSRGSPRYSPRHSRFRSRT [S19F], the protein stability index was 3.75.
With YSPRRSRGSPRYSPRHSRYRSRT [S19Y] the protein stability index was 3.96.
YSPRRSRGSPRYSPRHSRIRSRT [S19I] showed a protein stability index of 3.8.
With YSPRRSRGSPRYSPRHSRLRSRT [S19L] the protein stability index was 3.79.
With YSPRRSRGSPRYSPRHSRQRSRT [S19Q] the protein stability index was 3.89.
In the case of YSPRRSRGSPRYSPRHSRGRSRT [S19G], the protein stability index is reported as 3.95.
Variant YSPRRSRGSPRYSPRHSRNRSRT [S19N] has a protein stability index of 4.23.
Variant YSPRRSRGYPRYSPRHSRSRSRT [S9Y] has a protein stability index of 3.43.
Variant YSPRRSRGRPRYSPRHSRSRSRT [S9R] has a protein stability index of 4.37.
In the case of YSPRRSRGVPRYSPRHSRSRSRT [S9V], the protein stability index is reported as 3.8.
For YSPRRSRGWPRYSPRHSRSRSRT [S9W], the protein stability index was 2.29.
With YSPRRSRGTPRYSPRHSRSRSRT [S9T] the protein stability index was 3.74.
